Measured values taken from patent US20220332804A1 (CSL INNOVATION, published 2022).

Columns and labels:
Test in all cases: SPR, mAb captured, C2 mutant analyte;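 also: Anti-C2 mAbs captured on goat anti-human IgG Biacore CM5 chips, alanine or serine C2 surface mutants flowed over at 37 °C, double-referenced sensorgrams fitted to a 1:1 binding model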
human C2 K329A = molecular target: T1, human C2 K329A (human, UniProt P06681 21-752)
T1 sequence: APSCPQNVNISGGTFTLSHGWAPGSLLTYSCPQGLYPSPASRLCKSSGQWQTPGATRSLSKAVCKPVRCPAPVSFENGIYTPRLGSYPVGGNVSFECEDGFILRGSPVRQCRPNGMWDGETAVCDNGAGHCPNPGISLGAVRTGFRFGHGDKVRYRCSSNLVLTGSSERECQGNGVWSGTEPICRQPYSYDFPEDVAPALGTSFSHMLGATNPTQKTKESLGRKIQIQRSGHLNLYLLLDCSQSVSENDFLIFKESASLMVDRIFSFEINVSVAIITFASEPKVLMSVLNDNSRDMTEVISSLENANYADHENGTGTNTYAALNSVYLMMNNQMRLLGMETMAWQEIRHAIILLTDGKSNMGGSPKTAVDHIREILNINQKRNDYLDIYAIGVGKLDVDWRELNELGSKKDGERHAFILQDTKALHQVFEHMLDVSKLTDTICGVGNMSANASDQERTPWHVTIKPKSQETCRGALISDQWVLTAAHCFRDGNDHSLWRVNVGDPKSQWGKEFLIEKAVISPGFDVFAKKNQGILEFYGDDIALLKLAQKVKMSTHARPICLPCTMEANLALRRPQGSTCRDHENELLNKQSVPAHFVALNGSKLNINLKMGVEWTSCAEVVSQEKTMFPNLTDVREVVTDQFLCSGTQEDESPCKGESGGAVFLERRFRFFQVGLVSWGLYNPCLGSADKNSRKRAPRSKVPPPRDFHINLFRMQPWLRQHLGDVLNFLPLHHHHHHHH

human C2 D282A = molecular target: T2, human C2 D282A (human, UniProt P06681 21-752)
T2 sequence: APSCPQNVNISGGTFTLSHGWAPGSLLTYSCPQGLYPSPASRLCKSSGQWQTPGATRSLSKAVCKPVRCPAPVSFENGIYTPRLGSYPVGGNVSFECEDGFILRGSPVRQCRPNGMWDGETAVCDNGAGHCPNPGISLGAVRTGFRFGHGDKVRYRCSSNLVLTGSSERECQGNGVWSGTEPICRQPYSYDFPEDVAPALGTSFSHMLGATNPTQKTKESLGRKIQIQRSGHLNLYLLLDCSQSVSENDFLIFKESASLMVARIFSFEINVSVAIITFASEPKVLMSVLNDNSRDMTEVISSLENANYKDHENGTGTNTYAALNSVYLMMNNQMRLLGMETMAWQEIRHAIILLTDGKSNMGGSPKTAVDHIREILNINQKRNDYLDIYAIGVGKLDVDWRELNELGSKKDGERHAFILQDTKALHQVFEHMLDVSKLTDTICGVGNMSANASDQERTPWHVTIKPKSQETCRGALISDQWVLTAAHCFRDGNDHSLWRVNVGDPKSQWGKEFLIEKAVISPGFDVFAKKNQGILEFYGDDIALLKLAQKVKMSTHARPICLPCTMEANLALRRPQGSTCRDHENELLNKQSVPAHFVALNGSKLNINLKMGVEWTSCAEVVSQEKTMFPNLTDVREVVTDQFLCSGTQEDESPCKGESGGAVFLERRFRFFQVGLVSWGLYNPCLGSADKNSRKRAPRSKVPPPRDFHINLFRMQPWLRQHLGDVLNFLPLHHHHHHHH

human C2 G414A = molecular target: T3, human C2 G414A (human, UniProt P06681 21-752)
T3 sequence: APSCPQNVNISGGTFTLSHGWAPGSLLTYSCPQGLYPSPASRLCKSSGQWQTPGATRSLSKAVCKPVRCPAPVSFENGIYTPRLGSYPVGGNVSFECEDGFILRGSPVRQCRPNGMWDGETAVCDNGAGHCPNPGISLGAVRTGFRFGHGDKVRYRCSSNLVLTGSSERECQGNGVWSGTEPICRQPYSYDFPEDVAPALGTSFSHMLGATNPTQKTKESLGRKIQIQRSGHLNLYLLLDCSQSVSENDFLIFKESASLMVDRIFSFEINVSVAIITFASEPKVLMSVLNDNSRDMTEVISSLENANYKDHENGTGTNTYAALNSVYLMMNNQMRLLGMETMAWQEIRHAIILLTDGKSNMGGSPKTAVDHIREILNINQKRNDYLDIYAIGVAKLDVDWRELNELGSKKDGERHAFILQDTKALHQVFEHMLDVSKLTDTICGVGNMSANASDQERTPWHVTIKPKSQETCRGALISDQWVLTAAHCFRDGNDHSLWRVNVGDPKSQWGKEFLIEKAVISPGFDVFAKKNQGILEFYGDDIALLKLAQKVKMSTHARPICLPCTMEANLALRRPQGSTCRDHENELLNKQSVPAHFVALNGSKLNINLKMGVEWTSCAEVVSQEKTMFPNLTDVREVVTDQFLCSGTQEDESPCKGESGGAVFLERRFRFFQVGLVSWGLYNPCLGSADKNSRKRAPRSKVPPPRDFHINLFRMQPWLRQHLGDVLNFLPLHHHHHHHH

human C2 E476A = molecular target: T4, human C2 E476A (human, UniProt P06681 21-752)
T4 sequence: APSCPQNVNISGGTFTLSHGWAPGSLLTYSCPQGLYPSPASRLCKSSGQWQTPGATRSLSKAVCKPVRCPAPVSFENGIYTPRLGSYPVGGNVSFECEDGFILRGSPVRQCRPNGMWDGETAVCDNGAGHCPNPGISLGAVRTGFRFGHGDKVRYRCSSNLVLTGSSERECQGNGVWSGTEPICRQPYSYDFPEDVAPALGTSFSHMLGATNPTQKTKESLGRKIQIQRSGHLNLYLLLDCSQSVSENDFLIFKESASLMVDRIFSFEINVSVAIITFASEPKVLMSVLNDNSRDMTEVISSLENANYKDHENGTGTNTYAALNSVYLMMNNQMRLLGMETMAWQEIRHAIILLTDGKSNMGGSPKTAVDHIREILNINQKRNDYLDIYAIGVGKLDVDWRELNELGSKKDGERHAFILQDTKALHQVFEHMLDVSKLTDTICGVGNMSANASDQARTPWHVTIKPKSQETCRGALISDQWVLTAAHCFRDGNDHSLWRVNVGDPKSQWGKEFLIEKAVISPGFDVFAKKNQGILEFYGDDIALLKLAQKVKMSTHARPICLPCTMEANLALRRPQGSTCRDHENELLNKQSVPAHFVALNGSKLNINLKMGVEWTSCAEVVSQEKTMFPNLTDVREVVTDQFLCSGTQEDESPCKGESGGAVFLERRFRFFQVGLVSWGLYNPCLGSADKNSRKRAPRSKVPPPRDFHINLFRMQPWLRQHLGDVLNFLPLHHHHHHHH

Kd (human C2 K329A): 62.6 nM | binding result (human C2 D282A): no binding | Kd (human C2 G414A): 14.8 nM | Kd (human C2 E476A): 58.6 nM
B1: RF16-214 (antibody, V domains shown)
VH: EVQLLESGGGLVQPGGSLRLSCAASGFTFSWYQMMWVRQAPGKGLEWVSRIYPSGGGTAYADSVKGRFTISRDNSKNTLYLQMNSLRAEDTAVYYCARDAGYGDNWGQGTLVTVSS
VL: QSALTQPPSVSVSPGQTASITCSGDKLGEKYASWYQQKAGQSPVMVIYQDRKRPSGIPERFSGSNSGNTATLTISGTQAMDEADYYCQAWDTRAVVFGGGTKLTVLG
